This is an account of results in patent publication US20030177526A1 (PLANT HEALTH CARE, published 2003).

First the molecules themselves.
T1: LexA-harpin fusion (HrpN of Erwinia amylovora in bait vector pVJL11) (Erwinia amylovora, UniProt Q01099 1-403)
T1 construct: range 1-403; also called HrpN-pVJL11; lexA-harpin fusion protein; not shown: prokaryotic LexA protein (DNA-BD encoded in bait vector pVJL11)
T1 sequence: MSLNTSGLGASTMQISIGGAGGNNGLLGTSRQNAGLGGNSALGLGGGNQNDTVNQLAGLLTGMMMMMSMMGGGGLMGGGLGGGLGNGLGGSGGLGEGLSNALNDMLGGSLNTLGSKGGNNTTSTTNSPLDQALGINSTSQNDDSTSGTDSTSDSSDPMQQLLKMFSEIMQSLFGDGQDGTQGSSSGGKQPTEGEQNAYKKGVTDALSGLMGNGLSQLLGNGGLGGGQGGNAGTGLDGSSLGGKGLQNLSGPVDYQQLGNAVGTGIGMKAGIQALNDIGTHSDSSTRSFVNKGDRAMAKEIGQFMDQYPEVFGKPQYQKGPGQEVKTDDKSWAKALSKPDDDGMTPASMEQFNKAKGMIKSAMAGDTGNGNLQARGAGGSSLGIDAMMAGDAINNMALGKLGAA

T2: LexA fused to harpin 210-403 amino acids (Erwinia amylovora, UniProt Q01099 210-403)
T2 construct: range 210-403; not shown: prokaryotic LexA protein (bait vector)
T2 sequence: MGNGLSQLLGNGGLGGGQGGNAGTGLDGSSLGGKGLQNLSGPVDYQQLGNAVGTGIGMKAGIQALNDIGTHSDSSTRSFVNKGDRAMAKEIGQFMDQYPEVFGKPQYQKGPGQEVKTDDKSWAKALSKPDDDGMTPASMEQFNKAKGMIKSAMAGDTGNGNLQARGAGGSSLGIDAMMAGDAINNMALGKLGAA

T3: LexA fused to harpin 137-180 amino acids (Erwinia amylovora, UniProt Q01099 137-180)
T3 construct: also called harpin fragment that contains the second HR domain; not shown: prokaryotic LexA protein (bait vector)
T3 chain (looked up): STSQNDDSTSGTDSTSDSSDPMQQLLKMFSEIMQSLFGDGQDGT

T4: LexA-AtHrBP1p fusion (AtHrBP1 in bait vector pVJL11) (Arabidopsis thaliana, UniProt Q9LW57 1-284)
T4 construct: Yeast two-hybrid bait, opposite orientation; also called AtHrBP1-pVJL11; AtHrBP1p fused with the DNA-BD; not shown: prokaryotic LexA protein (DNA-BD encoded in bait vector pVJL11)
T4 sequence: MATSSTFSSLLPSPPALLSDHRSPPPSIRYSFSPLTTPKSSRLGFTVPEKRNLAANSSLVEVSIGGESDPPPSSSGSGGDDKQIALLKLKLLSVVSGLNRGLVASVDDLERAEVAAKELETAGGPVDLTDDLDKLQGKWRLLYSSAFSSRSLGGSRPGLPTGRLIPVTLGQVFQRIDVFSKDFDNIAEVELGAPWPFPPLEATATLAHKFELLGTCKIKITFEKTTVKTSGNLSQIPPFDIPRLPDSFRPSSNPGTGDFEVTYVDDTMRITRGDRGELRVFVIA

T5: GAL4 activation domain-harpin fusion (hrpN in prey vector pGAD GH) (yeast; Erwinia amylovora, UniProt Q01099 1-403)
T5 construct: range 1-403; also called hrpN-pGAD GH
T5 sequence: T1 sequence

T6: GAL4 activation domain-AtHrBP1p fusion (longest 1 kb cDNA insert in pGAD 10) (yeast; Arabidopsis thaliana, UniProt Q9LW57 1-284)
T6 construct: Yeast two-hybrid prey; also called AtHrBP1-AD fusion prey
T6 sequence: T4 sequence

B1: GAL4 activation domain-rice HrBP1p (R6p) fusion (receptor)
chain: VAALKVKLLSAVSGLNRGLAGSQEDLDRADAAARELEAAAGGGPVDLERDVDKLQGRWRLVYSSAFSSRTLGGSRPGPPTGRLLPITLGQVFQRIDVVSKDFDNIVDVELGAPWPLPPVELTATLAHKFEIIGTSSIKITFDKTTVKTKGNLSQLPPLEVPRIPDNLRPPSNTGSGEFEVTYLDGDTRITRGDRGELRVFVIS
notes: Partial cDNA clone from a yeast two-hybrid screen with harpin as bait; not full length
B2: GAL4 activation domain alone (empty prey vector pGAD GH) (other)
chain: ANFNQSGNIADSSLSFTFTNSSNGPNLITTQTNSQALSQPIASSNVHDNFMNNEITASKIDDGNNSKPLSPGWTDQTAYNAFGITTGMFNTTTMDDVYNYLFDDEDTPPNPKKE
notes: Control
B3: LexA alone (empty bait vector pVJL11) (other)
chain: MKALTARQQEVFDLIRDHISQTGMPPTRAEIAQRLGFRSPNAAEEHLKALARKGVIEIVSGASRGIRLLQEEEEGLPLVGRVAAGEPLLAQQHIEGHYQVDPSLFKPNADFLLRVSGMSMKDIGIMDGDLLAVHKTQDVRNGQVVVARIDDEVTVKRLKKQGNKVELLPENSEFKPIVVDLRQQSFTIEGLAVGVIRNGDWL
notes: Control

In test [1] the target is T1, LexA-harpin fusion (HrpN of Erwinia …). The test can be described thus: yeast two-hybrid, harpin as bait.
The target in test [2] is B3. The test can be described thus: yeast two-hybrid, lacZ and HIS3 reporters.
The target of test [3] is T2, LexA fused to harpin 210-403 amino acids. The test can be described thus: yeast two-hybrid, lacZ and HIS3 reporters.
For test [4], the target named is T3, LexA fused to harpin 137-180 amino acids. The test can be described thus: yeast two-hybrid, harpin fragment as bait.
For test [5], the target named is T4, LexA-AtHrBP1p fusion (AtHrBP1 in bait …). The test can be described thus: yeast two-hybrid, lacZ and HIS3 reporters.
For test [6], the target named is T1, LexA-harpin fusion (HrpN of Erwinia …). The test can be described thus: yeast two-hybrid, lacZ and HIS3 reporters.
The target of test [7] is T5, GAL4 activation domain-harpin fusion …. The test can be described thus: yeast two-hybrid, lacZ and HIS3 reporters.
In test [8] the target is T6, GAL4 activation domain-AtHrBP1p fusion …. The test can be described thus: yeast two-hybrid, lacZ and HIS3 reporters.

Regarding B1, the binding result in test [1] is “binds”; in test [2], “no binding”; in test [3] it was “no binding”; in test [4] it was “binds”.

As to B2, the binding result in test [5] and in test [6] was “no binding” in each case.

B3: the binding result in test [7] and in test [8] was “no binding” throughout.
